Here are results for two molecules from paper PMC8951541, “Sunflower WRINKLED1 Plays a Key Role in Transcriptional Regulation of Oil Biosynthesis”.

For series [1], the target named is T1, His-HaWRI1(52-234), AP2 domain (Helianthus annuus, UniProt A0A251SM13 52-234). Description: competition; 10x to 60x unlabeled probe against biotin-labeled N1 (EMSA); EMSA: 15 mM HEPES-KOH pH 7.5, 7.5 mM KCl, 0.5 mM EDTA, 5% glycerol, 2 mM DTT, 1 ug/uL BSA, 0.05 ug/uL poly(dI-dC), 20 uL, on ice 30 min; 5% native PAGE. The conditions noted are these: protein: recombinant; tags: 6xHis (pET41a-6xHis vector); label: none. Background: Mobility shift assays separate free from complexed probe on a gel.
T1 sequence (A0A251SM13 entry or part of it): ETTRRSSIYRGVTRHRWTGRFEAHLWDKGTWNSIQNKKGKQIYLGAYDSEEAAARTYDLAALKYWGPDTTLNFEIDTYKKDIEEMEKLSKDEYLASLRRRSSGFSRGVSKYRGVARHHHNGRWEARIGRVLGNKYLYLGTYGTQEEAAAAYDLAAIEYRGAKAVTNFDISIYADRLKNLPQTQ

In series [2] the target is T1, His-HaWRI1(52-234), AP2 domain. The experiment in a line: EMSA; poly(dI-dC) 0.05 ug/uL; 280 ng protein; 2 fmol/uL probe; EMSA: 15 mM HEPES-KOH pH 7.5, 7.5 mM KCl, 0.5 mM EDTA, 5% glycerol, 2 mM DTT, 1 ug/uL BSA, 0.05 ug/uL poly(dI-dC), 20 uL, on ice 30 min; 5% native PAGE. The conditions noted are these: protein: recombinant; tags: 6xHis (pET41a-6xHis vector); label: 5' biotin.

B1: proBCCP2 AW-box cold probe (dsDNA)
DNA 1: TACTTCCTCGGTTTCATCGTCCAC
DNA 2: GTGGACGATGAAACCGAGGAAGTA
For B1, the binding result in series [1] was “binds”.

B2: proBCCP2 AW-box probe (dsDNA)
DNA 1: TACTTCCTCGGTTTCATCGTCCAC
DNA 2: GTGGACGATGAAACCGAGGAAGTA
B2: the binding result in series [2] is on record as “binds”.
